“And” between values parts separate entries of the source, which are not always exact repeats. Equal entries are not always repeated.

To fix the notation:
B2: H3K9me3 peptide, N-terminal FITC (peptide)
chain: ARTKQTARKSTGGKAPR
modifications: trimethyl-lysine at K9; fluorescein isothiocyanate (FITC) at the N-terminus

What all share (conditions): both partners purified
The target of assay [1] is T1, Cbx7.V1 chromodomain variant (protein used for BLI) (human, UniProt O95931 7-66, E8D (printed as the back-mutation D8E) | Q9D | V10I (printed as the …)).
T1 construct: chromodomain of human Cbx7 with the six substitutions of the phage-selected variant V1; residues numbered on full-length Cbx7; for BLI they were probably still on the protein; source: E. coli BL21(DE3), purified (Ni-NTA)
T1 sequence: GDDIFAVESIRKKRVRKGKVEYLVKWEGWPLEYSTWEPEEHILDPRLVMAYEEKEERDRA
Kind of assay: BLI; biotinylated peptide on streptavidin biosensor tips, chromodomain in solution at 5 or 1 µM; 25 °C; 25 mM HEPES pH 7.0, 150 mM NaCl, 1 mg/ml BSA, 0.01% Tween-20; steady-state fit, Langmuir model; values of single replicates. For orientation: BLI is a label-free optical method that tracks binding on a fibre tip over time.

In the next assay the target is T2, Cbx7.V1 back-mutant D8E (human, UniProt O95931 7-66, Q9D | V10I (printed as the back-mutation I10V) | K33E | P37L (printed as the …)).
T2 construct: chromodomain of human Cbx7, variant V1 with residue 8 put back to the wild type; residues numbered on full-length Cbx7; Tags probably still on the protein in BLI (removal is told for FP and ITC only); source: E. coli BL21(DE3), purified (Ni-NTA)
T2 sequence: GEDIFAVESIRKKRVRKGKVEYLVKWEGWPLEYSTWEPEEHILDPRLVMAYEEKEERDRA
The description is as above.

The target in a further assay is T3, Cbx7.V1 back-mutant D9Q (human, UniProt O95931 7-66, E8D (printed as the back-mutation D8E) | V10I (printed as the back-mutation …)).
T3 construct: chromodomain of human Cbx7, variant V1 with residue 9 put back to the wild type; residues numbered on full-length Cbx7; Tags probably still on the protein in BLI (removal is told for FP and ITC only); source: E. coli BL21(DE3), purified (Ni-NTA)
T3 sequence: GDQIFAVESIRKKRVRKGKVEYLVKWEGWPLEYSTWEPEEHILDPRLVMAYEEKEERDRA
Described as above.

A further assay addresses T4, Cbx7.V1 back-mutant I10V (human, UniProt O95931 7-66, E8D (printed as the back-mutation D8E) | Q9D | K33E | P37L (printed as the …)).
T4 construct: chromodomain of human Cbx7, variant V1 with residue 10 put back to the wild type; residues numbered on full-length Cbx7; Tags probably still on the protein in BLI (removal is told for FP and ITC only); source: E. coli BL21(DE3), purified (Ni-NTA)
T4 sequence: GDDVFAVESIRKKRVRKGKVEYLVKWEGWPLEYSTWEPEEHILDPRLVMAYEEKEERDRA
Described as above.

The target of another assay is T5, Cbx7.V1 back-mutant L37P (human, UniProt O95931 7-66, E8D (printed as the back-mutation D8E) | Q9D | V10I (printed as the …)).
T5 construct: chromodomain of human Cbx7, variant V1 with residue 37 put back to the wild type; residues numbered on full-length Cbx7; Tags probably still on the protein in BLI (removal is told for FP and ITC only); source: E. coli BL21(DE3), purified (Ni-NTA)
T5 sequence: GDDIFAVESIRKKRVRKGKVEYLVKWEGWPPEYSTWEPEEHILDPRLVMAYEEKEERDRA
The assay is described as above.

Another assay deals with T6, Cbx7.V1 back-mutant E38K (human, UniProt O95931 7-66, E8D (printed as the back-mutation D8E) | Q9D | V10I (printed as the …)).
T6 construct: chromodomain of human Cbx7, variant V1 with residue 38 put back to the wild type; residues numbered on full-length Cbx7; Tags probably still on the protein in BLI (removal is told for FP and ITC only); source: E. coli BL21(DE3), purified (Ni-NTA)
T6 sequence: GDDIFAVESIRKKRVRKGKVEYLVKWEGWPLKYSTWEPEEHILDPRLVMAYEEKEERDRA
The assay is described as above.

Assay [2] deals with T7, Cbx7.V1 (tags removed, used for FP and ITC) (human, UniProt O95931 7-66, E8D (printed as the back-mutation D8E) | Q9D | V10I (printed as the …)).
T7 construct: chromodomain of human Cbx7 (Cbx7-chromo), UniProt O95931; source: E. coli BL21(DE3), purified (Ni-NTA; tags removed with TEV protease)
T7 sequence: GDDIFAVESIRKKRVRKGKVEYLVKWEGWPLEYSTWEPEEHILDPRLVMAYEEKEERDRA
Kind of assay: fluorescence polarisation; 0.5 nM FITC-labelled peptide; chromodomains 200-0.2 µM (wild type) or 50 µM-50 nM (Cbx7.V1 and all Cbx.VDs); 30 min at 25 °C; 25 mM HEPES pH 7.5, 150 mM NaCl, 1 mM DTT, 0.01% TritonX-100; one-site total binding model.

The target in assay [3] is T8, wild-type Cbx7 chromodomain (tags removed) (human, UniProt O95931 7-66).
T8 construct: chromodomain of human Cbx7 (Cbx7-chromo), UniProt O95931; also called Cbx7.wt; source: E. coli BL21(DE3), purified (Ni-NTA; tags removed with TEV protease)
T8 sequence: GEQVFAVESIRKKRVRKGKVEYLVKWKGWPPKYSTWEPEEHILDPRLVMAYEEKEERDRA
Described as above.

Assay [4] deals with T9, Cbx7 Q9D chromodomain (tags removed) (human, UniProt O95931 7-66, Q9D).
T9 construct: chromodomain of human Cbx7 (Cbx7-chromo), UniProt O95931; source: E. coli BL21(DE3), purified (Ni-NTA; tags removed with TEV protease)
T9 sequence: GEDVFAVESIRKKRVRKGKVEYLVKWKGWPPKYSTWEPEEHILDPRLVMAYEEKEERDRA
The description is as above.

Assay [5] addresses T10, Cbx7 K33E chromodomain (tags removed) (human, UniProt O95931 7-66, K33E).
T10 construct: chromodomain of human Cbx7 (Cbx7-chromo), UniProt O95931; source: E. coli BL21(DE3), purified (Ni-NTA; tags removed with TEV protease)
T10 sequence: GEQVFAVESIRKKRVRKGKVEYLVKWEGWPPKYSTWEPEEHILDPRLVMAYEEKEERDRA
The description is as above.

Assay [6] concerns the target T11, Cbx7.VD chromodomain, Q9D/K33E (tags removed) (human, UniProt O95931 7-66, Q9D | K33E).
T11 construct: chromodomain of human Cbx7 (Cbx7-chromo), UniProt O95931; source: E. coli BL21(DE3), purified (Ni-NTA; tags removed with TEV protease)
T11 sequence: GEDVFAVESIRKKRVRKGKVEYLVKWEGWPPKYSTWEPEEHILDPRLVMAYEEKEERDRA
Described as above.

In assay [7] the target is T12, wild-type Cbx1 chromodomain (tags removed) (human, UniProt P83916 20-73).
T12 construct: chromodomain of human Cbx1; also called Cbx1.wt; source: E. coli BL21(DE3), purified (Ni-NTA; tags removed with TEV protease)
The description is as above.

Assay [8] deals with T13, wild-type Cbx3 chromodomain (tags removed) (human, UniProt Q13185 29-86).
T13 construct: chromodomain of human Cbx3; also called Cbx3.wt; source: E. coli BL21(DE3), purified (Ni-NTA; tags removed with TEV protease)
The assay is described as above.

The target of assay [9] is T14, wild-type Cbx5 chromodomain (tags removed) (human, UniProt P45973 18-75).
T14 construct: chromodomain of human Cbx5; also called Cbx5.wt; source: E. coli BL21(DE3), purified (Ni-NTA; tags removed with TEV protease)
The description is as above.

Assay [10] concerns the target T15, wild-type Cbx2 chromodomain (tags removed) (human, UniProt Q14781 9-62).
T15 construct: chromodomain of human Cbx2; also called Cbx2.wt; source: E. coli BL21(DE3), purified (Ni-NTA; tags removed with TEV protease)
T15 sequence: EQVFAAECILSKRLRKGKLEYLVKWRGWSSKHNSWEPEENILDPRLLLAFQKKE
The assay is described as above.

Assay [11] addresses T16, wild-type Cbx8 chromodomain (tags removed) (human, UniProt Q9HC52 8-61).
T16 construct: chromodomain of human Cbx8; also called Cbx8.wt; source: E. coli BL21(DE3), purified (Ni-NTA; tags removed with TEV protease)
T16 sequence: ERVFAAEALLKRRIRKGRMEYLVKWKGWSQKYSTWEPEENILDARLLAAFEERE
Described as above.

The target of assay [12] is B2. The assay is described as above.

T13 sequence (Q13185 29-86, looked up): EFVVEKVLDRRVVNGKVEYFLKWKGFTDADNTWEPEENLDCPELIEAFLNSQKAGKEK
T12 sequence (P83916 20-73, looked up): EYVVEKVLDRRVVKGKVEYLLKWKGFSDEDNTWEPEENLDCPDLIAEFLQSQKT
T14 sequence (P45973 18-75, looked up): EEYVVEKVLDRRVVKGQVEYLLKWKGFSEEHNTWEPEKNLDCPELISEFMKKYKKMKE

B1: H3K27me3 peptide, biotinylated (peptide)
chain: KQLATKAARKSAPATGGVK
modifications: trimethyl-lysine at K27; biotin followed by an aminohexanoic acid linker at the N-terminus
Consider B1, for which the dissociation constant (Kd) (as a rule, the equilibrium constant for the complex coming apart) in assay [1] was 2 µM and 2.2 µM; with Cbx7.V1 back-mutant D8E it was 1.9 µM and 2.2 µM; with Cbx7.V1 back-mutant D9Q it was 1.6 µM and 2.7 µM; with Cbx7.V1 back-mutant I10V, 2.8 µM and 1.6 µM; with Cbx7.V1 back-mutant L37P it was 2.8 µM and 2.2 µM; in the assay with Cbx7.V1 back-mutant E38K, 1.5 µM and 1.7 µM.

B2: the Kd in assay [2] worked out at 7 µM; in assay [3], 30 µM; in assay [4] it was 10 µM; in assay [5] it was 20 µM; in [6], 8 µM; in assay [7] it was 0.5 µM. Moreover, the dissociation constant Kd was 2 µM in [8], 5 µM in assay [9], above 200 µM in [10] and above 200 µM in assay [11].

B3: H3K27me3 peptide, N-terminal FITC (peptide)
chain: KQLATKAARKSAPATGGVK
modifications: trimethyl-lysine at K27; fluorescein isothiocyanate (FITC) at the N-terminus
In the case of B3, the equilibrium dissociation constant (Kd) in [2] came to 4 µM; in assay [3], 110 µM; in assay [4], 100 µM; in [5], 20 µM; in assay [6], 5 µM; in assay [10], 100 µM. For the same molecule, in assay [11], the dissociation constant Kd is above 200 µM.

B4: Cbx6.VD chromodomain, Asp9/Glu33 (tags removed) (domain or fragment)
chain: GEDVFAAESIIKRRIRKGRIEYLVKWEGWAIKYSTWEPEENILDSRLIAAFEQKERERELYGP
On to B4, for which the Kd in assay [12] is above 50 µM.
